B1: MLL1 third plant homeodomain (PHD3) (domain or fragment, UniProt Q03164 1564-1627, looked up)
chain: AKGNFCPLCDKCYDDDDYESKMMQCGKCDRWVHSKCENLSDEMYEILSNLPESVAYTCVNCTER
notes: mixed-lineage leukemia 1 (MLL1), PHD3 domain, residues 1564 to 1627 (chain B 1564–1627); coordinates two zinc ions; The tag was removed with TEV protease on the chitin column; also called MLL1 PHD3; MLL1-PHD3; source: E. coli BL21-(DE3), codon-optimized construct, IMPACT system, purified (chitin beads, TEV cleavage, Superdex 75)

Experiments:
Conditions in all cases: both partners purified
[1] = target: B1; assay: ITC; conditions not given (table S1, fig. S2)
[2] = target: Cyp33 RRM/MLL1 PHD3 complex (human | , UniProt Q9UNP9 1-114; Q03164 1564-1627); assay: ITC; conditions not given (table S1, fig. S2)
Cyp33 RRM/MLL1 PHD3 complex, sequence (Q9UNP9 other isoform, or with tags, fused parts or gaps): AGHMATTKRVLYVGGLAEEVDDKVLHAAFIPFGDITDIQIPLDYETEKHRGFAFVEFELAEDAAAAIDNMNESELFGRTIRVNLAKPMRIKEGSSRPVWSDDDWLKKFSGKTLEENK

Cyp33 full-length (FL) = target: T1, Cyp33 full-length (FL) (human, UniProt Q9UNP9 1-301); assay: NMR titration; Cyp33 FL:UAAUGU RNA complex mixed with MLL1 PHD3:H3K4me3 complex at 1:1:1:1 stoichiometry (or in large excess of Cyp33:RNA); signals of RNA, of the K4me3 methyl groups and of PHD3 residues followed
T1 construct: cyclophilin 33 (Cyp33), 33 kDa, N-terminal RRM and C-terminal cyclophilin domain; details may stand in the Supplementary Materials and Methods; also called Cyp33 FL; cyclophilin 33
T1 sequence (Q9UNP9 whole entry, the tested form may be a part): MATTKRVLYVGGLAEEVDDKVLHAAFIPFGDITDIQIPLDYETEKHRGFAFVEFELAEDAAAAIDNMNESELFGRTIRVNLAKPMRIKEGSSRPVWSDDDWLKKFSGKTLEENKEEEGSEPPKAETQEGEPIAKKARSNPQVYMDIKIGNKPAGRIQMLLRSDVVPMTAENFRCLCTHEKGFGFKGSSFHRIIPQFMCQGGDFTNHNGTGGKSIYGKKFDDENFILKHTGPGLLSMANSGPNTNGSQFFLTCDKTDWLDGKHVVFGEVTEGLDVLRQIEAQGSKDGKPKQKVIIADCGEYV

Binder	Kd [1] [µM]	Kd [2] [µM]	binding result (Cyp33 full-length (FL))
ARTKQTARKSTGG (peptide, UniProt P68431 2-14, looked up, N6-trimethyl-lysine at 4, histone H3 N-terminal tail, residues 1–13 (chain C of the ternary complex), Lys4 trimethylated; The text says that it has four positively charged residues and no negatively charged one; The limits 1–13 are those of chain C of the structure; also called H3K4me3 peptide; histone H3 tail) [Histone H3 lysine N6-trimethylated peptide (H3K4me3)]	51	70	
B1			binds
